The target in this experiment is human GRP receptor (human, UniProt P30550 1-384). Description: cell-based or functional assay.

From US20260176319A1 (KALLYOPE, published 2026) come the findings set out here.

Starred links: 1 amine or outer side, 2 acyl side, 3 side chain; linkers in the order of their positions; H or OH if unused. Non-standard residues stand in square brackets, D forms with d. No end group written: not given here. *: point of attachment. Trp(7-F) = N[C@@H](Cc1c[nH]c2c(F)cccc12)C(=O)O; Trp(7-Me) = Cc1cccc2c(C[C@H](N)C(=O)O)c[nH]c12; C20 diacid = O=C(O)CCCCCCCCCCCCCCCCCCC(=O)*; d(γGlu) = O=C(O)[C@@H](CCC(=O)[*:2])N[*:1]; C18 diacid = O=C(O)CCCCCCCCCCCCCCCCC(=O)*; γGlu = O=C(O)[C@H](CCC(=O)[*:2])N[*:1]; 2Nal = N[C@@H](Cc1ccc2ccccc2c1)C(=O)O; Cha = N[C@@H](CC1CCCCC1)C(=O)O; Nle = CCCC[C@H](N)C(=O)O; AEEA = NCCOCCOCC(=O)O; Sar = CNCC(=O)O Some results are limits rather than exact numbers.

Chain of human GRP receptor (P30550 whole entry): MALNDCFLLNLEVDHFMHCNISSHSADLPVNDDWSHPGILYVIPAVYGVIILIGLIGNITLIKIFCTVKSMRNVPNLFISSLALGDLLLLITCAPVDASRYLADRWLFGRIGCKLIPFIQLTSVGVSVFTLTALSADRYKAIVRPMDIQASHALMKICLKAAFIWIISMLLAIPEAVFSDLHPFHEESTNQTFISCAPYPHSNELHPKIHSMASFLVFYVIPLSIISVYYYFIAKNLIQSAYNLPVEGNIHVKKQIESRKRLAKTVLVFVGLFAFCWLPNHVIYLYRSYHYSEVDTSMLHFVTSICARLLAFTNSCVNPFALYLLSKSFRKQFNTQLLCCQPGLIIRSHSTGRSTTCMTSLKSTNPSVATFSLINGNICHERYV

B1: Peptide 123 (peptide)
peptide: {C20 diacid}-[γGlu][AEEA][AEEA]GNH[Trp(7-Me)]AV[dA]HL[Nle][Sar]-NH2
SMILES: CCCC[C@H](NC(=O)[C@H](CC(C)C)NC(=O)[C@H](Cc1c[nH]cn1)NC(=O)[C@@H](C)NC(=O)[C@@H](NC(=O)[C@H](C)NC(=O)[C@H](Cc1c[nH]c2c(C)cccc12)NC(=O)[C@H](Cc1c[nH]cn1)NC(=O)[C@H](CC(N)=O)NC(=O)CNC(=O)COCCOCCNC(=O)COCCOCCNC(=O)CC[C@H](NC(=O)CCCCCCCCCCCCCCCCCCC(=O)O)C(=O)O)C(C)C)C(=O)N(C)CC(N)=O
Consider B1, for which the “hIP1 GRPR EC50” value was 60.1 nM.

B2: Peptide 128 (peptide)
peptide: {C18 diacid}-[γGlu][AEEA][AEEA]GAHW[dA]V[dA]HL[Nle][Sar]-NH2
SMILES: CCCC[C@H](NC(=O)[C@H](CC(C)C)NC(=O)[C@H](Cc1c[nH]cn1)NC(=O)[C@@H](C)NC(=O)[C@@H](NC(=O)[C@@H](C)NC(=O)[C@H](Cc1c[nH]c2ccccc12)NC(=O)[C@H](Cc1c[nH]cn1)NC(=O)[C@H](C)NC(=O)CNC(=O)COCCOCCNC(=O)COCCOCCNC(=O)CC[C@H](NC(=O)CCCCCCCCCCCCCCCCC(=O)O)C(=O)O)C(C)C)C(=O)N(C)CC(N)=O
Regarding B2, the “hIP1 GRPR EC50” value is 1060 nM.

B3: Peptide 126 (peptide)
peptide: {C18 diacid}-[γGlu][AEEA][AEEA]GAH[2Nal]AV[dA]HL[Nle]-NH2
SMILES: CCCC[C@H](NC(=O)[C@H](CC(C)C)NC(=O)[C@H](Cc1c[nH]cn1)NC(=O)[C@@H](C)NC(=O)[C@@H](NC(=O)[C@H](C)NC(=O)[C@H](Cc1ccc2ccccc2c1)NC(=O)[C@H](Cc1c[nH]cn1)NC(=O)[C@H](C)NC(=O)CNC(=O)COCCOCCNC(=O)COCCOCCNC(=O)CC[C@H](NC(=O)CCCCCCCCCCCCCCCCC(=O)O)C(=O)O)C(C)C)C(N)=O
Turning to B3, the “hIP1 GRPR EC50” value is 92.5 nM.

B4: Peptide 122 (peptide)
peptide: {C20 diacid}-[γGlu][AEEA][AEEA][AEEA][AEEA]GRH[Trp(7-Me)]AV[dA]HL[Nle]-NH2
SMILES: CCCC[C@H](NC(=O)[C@H](CC(C)C)NC(=O)[C@H](Cc1c[nH]cn1)NC(=O)[C@@H](C)NC(=O)[C@@H](NC(=O)[C@H](C)NC(=O)[C@H](Cc1c[nH]c2c(C)cccc12)NC(=O)[C@H](Cc1c[nH]cn1)NC(=O)[C@H](CCCNC(=N)N)NC(=O)CNC(=O)COCCOCCNC(=O)COCCOCCNC(=O)COCCOCCNC(=O)COCCOCCNC(=O)CC[C@H](NC(=O)CCCCCCCCCCCCCCCCCCC(=O)O)C(=O)O)C(C)C)C(N)=O
For B4, the “hIP1 GRPR EC50” value stood at 3.88 nM.

B5: Peptide 119 (peptide)
peptide: {C18 diacid}-[γGlu][AEEA][AEEA]GNHWAV[dA]HL[Cha]-NH2
SMILES: CC(C)C[C@H](NC(=O)[C@H](Cc1c[nH]cn1)NC(=O)[C@@H](C)NC(=O)[C@@H](NC(=O)[C@H](C)NC(=O)[C@H](Cc1c[nH]c2ccccc12)NC(=O)[C@H](Cc1c[nH]cn1)NC(=O)[C@H](CC(N)=O)NC(=O)CNC(=O)COCCOCCNC(=O)COCCOCCNC(=O)CC[C@H](NC(=O)CCCCCCCCCCCCCCCCC(=O)O)C(=O)O)C(C)C)C(=O)N[C@@H](CC1CCCCC1)C(N)=O
Regarding B5, the “hIP1 GRPR EC50” value was found to be 660 nM.

B6: Peptide 129 (peptide)
peptide: {C18 diacid}-[γGlu][AEEA][AEEA]GRH[Trp(7-Me)]AV[dA]HL[Nle][Sar]-NH2
SMILES: CCCC[C@H](NC(=O)[C@H](CC(C)C)NC(=O)[C@H](Cc1c[nH]cn1)NC(=O)[C@@H](C)NC(=O)[C@@H](NC(=O)[C@H](C)NC(=O)[C@H](Cc1c[nH]c2c(C)cccc12)NC(=O)[C@H](Cc1c[nH]cn1)NC(=O)[C@H](CCCNC(=N)N)NC(=O)CNC(=O)COCCOCCNC(=O)COCCOCCNC(=O)CC[C@H](NC(=O)CCCCCCCCCCCCCCCCC(=O)O)C(=O)O)C(C)C)C(=O)N(C)CC(N)=O
Turning to B6, the “hIP1 GRPR EC50” value was determined as 334 nM.

B7: GRP-10 (human GRP18-27) (peptide)
peptide: GNHWAVGHLM-NH2
Turning to B7, the “hIP1 GRPR EC50” value was 15 nM.

B8: Peptide 9 (peptide)
peptide: {C18 diacid}-[d(γGlu)][AEEA][AEEA]GNHWAV[dA]HL[Nle]-NH2
SMILES: CCCC[C@H](NC(=O)[C@H](CC(C)C)NC(=O)[C@H](Cc1c[nH]cn1)NC(=O)[C@@H](C)NC(=O)[C@@H](NC(=O)[C@H](C)NC(=O)[C@H](Cc1c[nH]c2ccccc12)NC(=O)[C@H](Cc1c[nH]cn1)NC(=O)[C@H](CC(N)=O)NC(=O)CNC(=O)COCCOCCNC(=O)COCCOCCNC(=O)CC[C@@H](NC(=O)CCCCCCCCCCCCCCCCC(=O)O)C(=O)O)C(C)C)C(N)=O
Consider B8, for which the “hIP1 GRPR EC50” value stood at 9.4 nM.

B9: Peptide 120 (peptide)
peptide: {C18 diacid}-[γGlu][AEEA][AEEA]GAHWAV[dA]HL[Cha]-NH2
SMILES: CC(C)C[C@H](NC(=O)[C@H](Cc1c[nH]cn1)NC(=O)[C@@H](C)NC(=O)[C@@H](NC(=O)[C@H](C)NC(=O)[C@H](Cc1c[nH]c2ccccc12)NC(=O)[C@H](Cc1c[nH]cn1)NC(=O)[C@H](C)NC(=O)CNC(=O)COCCOCCNC(=O)COCCOCCNC(=O)CC[C@H](NC(=O)CCCCCCCCCCCCCCCCC(=O)O)C(=O)O)C(C)C)C(=O)N[C@@H](CC1CCCCC1)C(N)=O
Turning to B9, the “hIP1 GRPR EC50” value was 443 nM.

B10: Peptide 125 (peptide)
peptide: {C20 diacid}-[γGlu][AEEA][AEEA]GNH[Trp(7-Me)][dA]V[dA]HL[Nle][Sar]-NH2
SMILES: CCCC[C@H](NC(=O)[C@H](CC(C)C)NC(=O)[C@H](Cc1c[nH]cn1)NC(=O)[C@@H](C)NC(=O)[C@@H](NC(=O)[C@@H](C)NC(=O)[C@H](Cc1c[nH]c2c(C)cccc12)NC(=O)[C@H](Cc1c[nH]cn1)NC(=O)[C@H](CC(N)=O)NC(=O)CNC(=O)COCCOCCNC(=O)COCCOCCNC(=O)CC[C@H](NC(=O)CCCCCCCCCCCCCCCCCCC(=O)O)C(=O)O)C(C)C)C(=O)N(C)CC(N)=O
Consider B10, for which the “hIP1 GRPR EC50” value was over 10000 nM.

B11: Peptide 121 (peptide)
peptide: {C18 diacid}-[γGlu][AEEA][AEEA][AEEA][AEEA]GAH[Trp(7-F)]AV[dA]HL[Nle][Sar]-NH2
SMILES: CCCC[C@H](NC(=O)[C@H](CC(C)C)NC(=O)[C@H](Cc1c[nH]cn1)NC(=O)[C@@H](C)NC(=O)[C@@H](NC(=O)[C@H](C)NC(=O)[C@H](Cc1c[nH]c2c(F)cccc12)NC(=O)[C@H](Cc1c[nH]cn1)NC(=O)[C@H](C)NC(=O)CNC(=O)COCCOCCNC(=O)COCCOCCNC(=O)COCCOCCNC(=O)COCCOCCNC(=O)CC[C@H](NC(=O)CCCCCCCCCCCCCCCCC(=O)O)C(=O)O)C(C)C)C(=O)N(C)CC(N)=O
On to B11, for which the “hIP1 GRPR EC50” value was found to be 356 nM.

B12: Peptide 124 (peptide)
peptide: {C18 diacid}-[γGlu][AEEA][AEEA]GAH[2Nal]AV[dA]HL[Nle][Sar]-NH2
SMILES: CCCC[C@H](NC(=O)[C@H](CC(C)C)NC(=O)[C@H](Cc1c[nH]cn1)NC(=O)[C@@H](C)NC(=O)[C@@H](NC(=O)[C@H](C)NC(=O)[C@H](Cc1ccc2ccccc2c1)NC(=O)[C@H](Cc1c[nH]cn1)NC(=O)[C@H](C)NC(=O)CNC(=O)COCCOCCNC(=O)COCCOCCNC(=O)CC[C@H](NC(=O)CCCCCCCCCCCCCCCCC(=O)O)C(=O)O)C(C)C)C(=O)N(C)CC(N)=O
As to B12, the “hIP1 GRPR EC50” value was determined as 2380 nM.
